Reference: patent US20200399394A1

Experiments:
[1] = molecular target: human CD39 (ectonucleoside triphosphate diphosphohydrolase 1) (UniProt P49961); assay: ForteBio (BLI); IgG, monovalent
[2] = molecular target: human CD39 (ectonucleoside triphosphate diphosphohydrolase 1) (UniProt P49961); assay: MSD equilibrium; Fab

Which Kd [1] does the source give for SRF399-C here?
Its Kd is 2.94 nM.

And the Kd [2]?
The Kd was 0.053 nM.
